Assay results reported in the supplement of paper PMC9112550, “Optimization of the antimicrobial peptide Bac7 by deep mutational scanning” (BMC Biology, 2022).

Each sequence was assayed on Escherichia coli TOP10 (assay: shrunken log2 fold change of peptide-encoding DNA abundance (4.5 h post-induction vs induction); higher = less antimicrobial activity (less host growth inhibition)). Settings: time post-induction: 4.5 h; library: site-saturation at positions 5, 18, 19, 20.
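Also: peptides expressed intracellularly from a pBAD plasmid library in pooled LB shake-flask culture, induced with 0.3% L-arabinose, DNA abundance read by NGS, three biological replicates, DESeq2 with apeglm shrinkage.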

Sequence | shrunken log2 fold change
RRIRPRPPRLPRPRPRPSPTPRP | 0.22
RRIRQRPPRLPRPRPRPRASPRP | 0.392
RRIRMRPPRLPRPRPRPWCIPRP | -0.315
RRIRERPPRLPRPRPRPDGLPRP | 0.0424
RRIRKRPPRLPRPRPRPFPAPRP | 0.341
RRIRTRPPRLPRPRPRPEYQPRP | 0.066
RRIRTRPPRLPRPRPRPDGDPRP | 0.052
RRIRMRPPRLPRPRPRPWKMPRP | 0.0322
RRIRMRPPRLPRPRPRPIFAPRP | 0.556
RRIRKRPPRLPRPRPRPCAVPRP | 2.99
RRIRYRPPRLPRPRPRPYPEPRP | -0.173
RRIRDRPPRLPRPRPRPPMGPRP | 0.283
RRIRPRPPRLPRPRPRPERNPRP | -0.307
RRIRTRPPRLPRPRPRPETIPRP | -0.0605
RRIRMRPPRLPRPRPRPDMNPRP | 2.25
RRIRARPPRLPRPRPRPWTNPRP | 0.124
RRIRPRPPRLPRPRPRPEITPRP | 0.175
RRIRQRPPRLPRPRPRPGCKPRP | -0.0467
RRIRWRPPRLPRPRPRPTWRPRP | 0.609
RRIRMRPPRLPRPRPRPGAQPRP | 1.24
RRIRNRPPRLPRPRPRPGANPRP | -0.151
RRIRDRPPRLPRPRPRPHSGPRP | -0.0339
RRIRWRPPRLPRPRPRPQKPPRP | 0.0546
RRIRQRPPRLPRPRPRPKRQPRP | 0.0299
RRIRYRPPRLPRPRPRPGAIPRP | -0.284

Sequence | shrunken log2 fold change
RRIRQRPPRLPRPRPRPTSLPRP | -0.0738
RRIRNRPPRLPRPRPRPCKAPRP | -0.1
RRIRFRPPRLPRPRPRPPTMPRP | 0.166
RRIRCRPPRLPRPRPRPLLRPRP | 0.88
RRIRRRPPRLPRPRPRPAYFPRP | 0.401
RRIRFRPPRLPRPRPRPGHYPRP | -0.205
RRIRKRPPRLPRPRPRPDKLPRP | 0.367
RRIRKRPPRLPRPRPRPEWMPRP | -0.0537
RRIRMRPPRLPRPRPRPVSHPRP | 0.259
RRIRARPPRLPRPRPRPRGDPRP | 3.26
RRIRSRPPRLPRPRPRPRYSPRP | -0.232
RRIRLRPPRLPRPRPRPHERPRP | 0.274
RRIRGRPPRLPRPRPRPWTGPRP | -0.0411
RRIRDRPPRLPRPRPRPTVMPRP | -0.221
RRIRVRPPRLPRPRPRPEASPRP | 0.0108
RRIRERPPRLPRPRPRPINLPRP | -0.338
RRIRWRPPRLPRPRPRPNNNPRP | -0.514
RRIRVRPPRLPRPRPRPMKIPRP | -0.232
RRIRARPPRLPRPRPRPGSHPRP | 0.101
RRIRRRPPRLPRPRPRPMWVPRP | -0.135
RRIRVRPPRLPRPRPRPIAIPRP | -0.0841
RRIRPRPPRLPRPRPRPYARPRP | -0.0595
RRIRHRPPRLPRPRPRPFYRPRP | -0.0975
RRIRPRPPRLPRPRPRPPRDPRP | 0.521
RRIRKRPPRLPRPRPRPAYTPRP | -0.0132

Sequence | shrunken log2 fold change
RRIRQRPPRLPRPRPRPIPDPRP | -0.07
RRIRYRPPRLPRPRPRPFASPRP | -0.000244
RRIRRRPPRLPRPRPRPSDMPRP | -0.463
RRIRARPPRLPRPRPRPNASPRP | 0.711
RRIRQRPPRLPRPRPRPLQDPRP | -0.0148
RRIRQRPPRLPRPRPRPRCSPRP | -0.232
RRIRPRPPRLPRPRPRPVERPRP | 0.289
RRIRFRPPRLPRPRPRPEPMPRP | -0.278
RRIRFRPPRLPRPRPRPFILPRP | -0.749
RRIRNRPPRLPRPRPRPYVLPRP | 0.0201
RRIRCRPPRLPRPRPRPSDYPRP | -1.15
RRIRKRPPRLPRPRPRPMFIPRP | -0.0367
RRIRKRPPRLPRPRPRPGQCPRP | 0.0394
RRIRQRPPRLPRPRPRPMWLPRP | -0.22
RRIRERPPRLPRPRPRPQTIPRP | -0.378
RRIRTRPPRLPRPRPRPHVTPRP | -0.15
RRIRCRPPRLPRPRPRPYLDPRP | -0.575
RRIRLRPPRLPRPRPRPIRQPRP | -0.0246
RRIRCRPPRLPRPRPRPPNKPRP | -0.0142
RRIRERPPRLPRPRPRPVGYPRP | 0.161
RRIRTRPPRLPRPRPRPHPFPRP | -0.00172
RRIRIRPPRLPRPRPRPVMCPRP | 0.062
RRIRRRPPRLPRPRPRPQHEPRP | 0.343
RRIRRRPPRLPRPRPRPVHEPRP | 0.381
RRIRPRPPRLPRPRPRPRFMPRP | -0.0826

Sequence | shrunken log2 fold change
RRIRFRPPRLPRPRPRPISIPRP | -0.697
RRIRHRPPRLPRPRPRPPNDPRP | -0.471
RRIRCRPPRLPRPRPRPLIHPRP | -0.842
RRIRRRPPRLPRPRPRPWCIPRP | -0.366
RRIRIRPPRLPRPRPRPHFHPRP | -0.424
RRIRIRPPRLPRPRPRPCTQPRP | -0.361
RRIRWRPPRLPRPRPRPFEDPRP | 0.104
RRIRGRPPRLPRPRPRPSAMPRP | 0.989
RRIRVRPPRLPRPRPRPLGCPRP | -0.0466
RRIRWRPPRLPRPRPRPQAPPRP | -0.164
RRIRRRPPRLPRPRPRPHVIPRP | -0.0937
RRIRLRPPRLPRPRPRPPYIPRP | -0.081
RRIRGRPPRLPRPRPRPMTMPRP | 0.146
RRIRRRPPRLPRPRPRPSMRPRP | 0.557
RRIRNRPPRLPRPRPRPKHHPRP | -0.487
RRIRMRPPRLPRPRPRPHGLPRP | 0.0212
RRIRHRPPRLPRPRPRPTHNPRP | -0.211
RRIRNRPPRLPRPRPRPQSDPRP | -0.174
RRIRIRPPRLPRPRPRPDMHPRP | -0.0689
RRIRCRPPRLPRPRPRPGDVPRP | -0.319
RRIRFRPPRLPRPRPRPHVWPRP | 0.491
RRIRDRPPRLPRPRPRPRLYPRP | -0.0462
RRIRCRPPRLPRPRPRPRRFPRP | 0.338
RRIRLRPPRLPRPRPRPEFDPRP | 0.31
RRIRFRPPRLPRPRPRPQRLPRP | 0.106

Sequence | shrunken log2 fold change
RRIRRRPPRLPRPRPRPDWNPRP | -0.223
RRIRWRPPRLPRPRPRPKPMPRP | 0.171
RRIRFRPPRLPRPRPRPMLHPRP | -0.376
RRIRRRPPRLPRPRPRPHKSPRP | -0.0141
RRIRDRPPRLPRPRPRPRLGPRP | 0.829
RRIRDRPPRLPRPRPRPMYLPRP | -0.239
RRIRCRPPRLPRPRPRPSWVPRP | -0.273
RRIRFRPPRLPRPRPRPQIIPRP | -0.149
RRIRPRPPRLPRPRPRPKDNPRP | -0.248
RRIRERPPRLPRPRPRPACGPRP | 0.14
RRIRCRPPRLPRPRPRPFDIPRP | -1.4
RRIRKRPPRLPRPRPRPNNDPRP | 0.0263
RRIRIRPPRLPRPRPRPWTHPRP | -0.0959
RRIRWRPPRLPRPRPRPSVDPRP | 0.0991
RRIRQRPPRLPRPRPRPMYWPRP | 0.0971
RRIRSRPPRLPRPRPRPYTRPRP | -0.304
RRIRMRPPRLPRPRPRPIGLPRP | -0.062
RRIRERPPRLPRPRPRPICPPRP | -0.794
RRIRCRPPRLPRPRPRPILGPRP | -0.378
RRIRMRPPRLPRPRPRPVSDPRP | 2.67
RRIRDRPPRLPRPRPRPIVMPRP | -0.0257
RRIRSRPPRLPRPRPRPQDCPRP | -0.261
RRIRERPPRLPRPRPRPQSHPRP | -0.268
RRIRIRPPRLPRPRPRPDFMPRP | -0.661
RRIRKRPPRLPRPRPRPKASPRP | 0.0517

Sequence | shrunken log2 fold change
RRIRSRPPRLPRPRPRPPHLPRP | -0.00867
RRIRHRPPRLPRPRPRPGGDPRP | 0.0994
RRIRWRPPRLPRPRPRPWGCPRP | 0.423
RRIRPRPPRLPRPRPRPDCAPRP | 0.354
RRIRCRPPRLPRPRPRPMSIPRP | -0.484
RRIRHRPPRLPRPRPRPPGRPRP | 0.593
RRIRCRPPRLPRPRPRPAMYPRP | -0.265
RRIRMRPPRLPRPRPRPAFVPRP | 0.233
RRIRPRPPRLPRPRPRPEHNPRP | -0.169
RRIRYRPPRLPRPRPRPLVQPRP | -0.49
RRIRKRPPRLPRPRPRPGWEPRP | -0.00146
RRIRKRPPRLPRPRPRPLYVPRP | 0.0738
RRIRTRPPRLPRPRPRPPGPPRP | 0.53
RRIRRRPPRLPRPRPRPGSRPRP | 0.155
RRIRLRPPRLPRPRPRPICLPRP | 0.193
RRIRFRPPRLPRPRPRPHSTPRP | -0.0436
RRIRYRPPRLPRPRPRPQGSPRP | -0.19
RRIRERPPRLPRPRPRPQRWPRP | 0.117
RRIRQRPPRLPRPRPRPRNRPRP | 0.0911
RRIRKRPPRLPRPRPRPNSIPRP | -0.0805
RRIRSRPPRLPRPRPRPLGVPRP | 0.0588
RRIRYRPPRLPRPRPRPNPIPRP | -0.711
RRIRWRPPRLPRPRPRPHLPPRP | -0.166
RRIRTRPPRLPRPRPRPLWGPRP | -0.0731
RRIRMRPPRLPRPRPRPIASPRP | 0.0465
